# Data: the DeepSol protein solubility set
# Experiment: soluble on expression in E. coli; label from the status in PepcDB or PDB records
row,Sequence,soluble on expression in E. coli
1,GSHMGRSQKVSQMTKVETRLEILDVTLRDGEQTRGVSFSTSEKLNIAKFLLQKLNVDRVEIASARVSKGELETVQKIMEWAATEQLTERIEILGFVDGNKTVDWIKDSGAKVLNLLTKGSLHHLEKQLGKTPKEFFTDVSFVIEYAIKSGLKINVYLEDWSNGFRNSPDYVKSLVEHLSKEHIERIFLPDTLGVLSPEETFQGVDSLIQKYPDIHFEFHGHNDYDLSVANSLQAIRAGVKGLHASINGLGERAGNTPLEALVTTIHDKSNSKTNINEIAITEASRLVEVFSGKRISANRPIVGEDVFTQTAGVHADGDKKGNLYANPILPERFGRKR,soluble
2,GSHMPTAIESCMVKFELSSSKWHMTSPKPHCVNTTSDGKLKILQSGTYLIYGQVIPVDKKYIKDNAPFVVQIYKKNDVLQTLMNDFQILPIGGVYELHAGDNIYLKFNSKDHIQKTNTYWGIILMPDLPFIS,soluble
3,GSHNATSGHEDMPVERILEAELAVEPKTESYGDMNMENSTNDPVTNICHAADKQLFTLVEWAKRIPHFSDLTLEDQVILLRAGWNELLIASFSHRSVSVQDGILLATGLHVHRSSAHSAGVGSIFDRVLTELVSKMKDMQMDKSELGCLRAIVLFNPDAKGLSNPSEVETLREKVYATLEAYTKQKYPEQPGRFAKLLLRLPALRSIGLKCLEHLFFFKLIGDTPIDTFLMEMLETPLQIT,soluble
4,GSMIKLFSLKQQKKEEEKGSSKKASAAQLRIQKDINELNLPKTCDISFSDPDDLLNFKLVICPDEGFYKSGKFVFSFKVGQGYPHDPPKVKCETMVYHPNIDLEGNVALNILREDWKPVLTINSIIYGLQYLFLEPNPEDPLNKEAAEVLQNNRRLFEQNVQRSMRGGYIGSTYFERCLK,soluble
5,GSRLNPVQLELLNKLHLETKLNAEYTFMLAEQSNWNYEVAIKGFQSSMNGIPREAFVQF,soluble
6,GSSGSSGMEAVLNELVSVEDLKNFERKFQSEQAAGSVSKSTQFEYAWCLVRSKYNEDIRRGIVLLEELLPKGSKEEQRDYVFYLAVGNYRLKEYEKALKYVRGLLQTEPQNNQAKELERLIDKAMKKSGPSSG,soluble
7,GSSHCRFYENKYPEIDDIVMVNVQQIAEMGAYVKLLEYDNIEGMILLSELSRRRIRSIQKLIRVGKNDVAVVLRVDKEKGYIDLSKRRVSSEDIIKCEEKYQKSKTVHSILRYCAEKFQIPLEELYKTIAWPLSRKFGHAYEAFKLSIIDETVWEGIEPPSKDVLDELKNYISKR,soluble
8,GSSHHHHHHDYDIPTTENLYFQGSAHRPRWTLSQVTELFEKPLLDLLFEAQQVHRQHFDPRQVQVSTLLSIKTGACPEDCKYCPQSSRYKTGLEAERLMEVEQVLESARKAKAAGSTRFCMGAAWKNPHERDMPYLEQMVQGVKAMGLEACMTLGTLSESQAQRLANAGLDYYNHNLDTSPEFYGNIITTRTYQERLDTLEKVRDAGIKVCSGGIVGLGETVKDRAGLLLQLANLPTPPESVPINMLVKVKGTPLADNDDVDAFDFIRTIAVARIMMPTSYVRLSAGREQMNEQTQAMCFMAGANSIFYGCKLLTTPNPEEDKDLQLFRKLGLNPQQTAVLAGDNEQQQRLEQALMTPDTDEYYNAAAL,soluble
9,GSSHHHHHHMLKIGSHVSMSGKKMLLAASEEAVSYGATTFMIYTGAPQNTRRKPIEELNIEAGRKHMEQNGIEEIIIHAPYIINVGNTTKPETFQLGVDFLRMEIERTSALGVAKQIVLHPGAHVGAGADAGIQQIIKGLNEVLTPDQTVNIALETMAGKGTECGRSFEEIAKIIDGVKYNEKLSVCFDTCHTHDAGYDIVNNFDGVLNEFDKIVGIDRLQVLHINDSKNVRGAGKDRHENIGFGHIGYKALHHIVHHPQLTHVPKILETPYVGEDKKDKKPPYKLEIEMLKNGTFDEGLLEKIKAQ,soluble
10,GSSHHHHHHSSGRENLYFQGHMARPGMERWRDRLALVTGASGGIGAAVARALVQQGLKVVGCARTVGNIEELAAECKSAGYPGTLIPYRCDLSNEEDILSMFSAIRSQHSGVDICINNAGLARPDTLLSGSTSGWKDMFNVNVLALSICTREAYQSMKERNVDDGHIININSMSGHRVLPLSVTHFYSATKYAVTALTEGLRQELREAQTHIRATCISPGVVETQFAFKLHDKDPEKAAATYEQMKCLKPEDVAEAVIYVLSTPAHIQIGDIQMRPTGS,soluble
11,GSSSSLPLYNQQVGDCCIIRVSLDVDNGNMYKSILVTSQDKAPTVIRKAMDKHNLDEDEPEDYELLQIISEDHKLKIPENANVFYAMNSAANYDFILKKR,soluble
12,GTKQEKTILNMARFIRSQALTILEKANELDADEIADIAESIHDHADEIYRSALARFGDDGENL,soluble
13,GVALGATRVIYPEGQKQVQLAVTNNDDKSSYLIQSWIENAEGKKDARFVITPPLFSMQGKKENTLRIIDATNGQMPEDRESLFWVNVKAIPAMDKAKTGENYLQFAIVSRIKLLYRPQGLVIPPEQAPGKLEFTRENGGLTLFNPTPYYLTVTDLKAGNKSLENTMVPPQGKVTVNIPGGYTGGDITYKTINDYGALTEQVRGVVK,soluble
14,GVDGCGSVTLAYDGFNVNLLHSKVSDSLIPSEFQGEQGSVLVDMIATGRGVERILRGEEKETLTLPQTENHMFYEAEAFAKQLKLGVIDEQMKQRSLTVAKVLTEVRKQTGVVFPADQ,not soluble
15,GVSVDARIAKNVEEFLAAAQEINPSYHLISGYRSVAYQTELYNSYVQQEMADDPTLTESQAEKKVQTYSQPPGASEHQTGLAIDMSTVDSLDEADPATVAKVKKIAPKYGFVLRFPDGKTSSTGVGYEDWHFRYVGKESAEYMTEHNLTLEEYLVLLKEKTK,not soluble
16,GVTKKLKISRTATCKGCKGLGGNEGSAKECSDCRGRGIKVRVIRMGPMVQQMQSHCDSCNGEGSTFLEKDRCKKCNGKKQVKEDEI,not soluble
17,HDGIERELTIAVNNIIPGDLLVAFIRDFERQFTSTTLTVDLEVYNGCWDALYSKRADLVYGAPHAVPSSEGIISEPVGQMEWDFVVSPLHPLAAKRHPLENSELRHYPAVCIRDTSVNFPPMQAWLLEGQKPIFVPDFATAIALIE,not soluble
18,HDKVVVLEAKNGNVTFDHKKHAGVKGECKACHETEAGGKIAGMGKDWAHKTCTGCHKEMGKGPTKCGECHKK,soluble
19,HEHNISVTGGTDKIQYYLSANYLGQDGELRIGDEYSNRYTASAKINAQLSKIVSVGFNTRFIRSDYVQPTHLNESFFAEIGRQCWPTKPLYDPNGILYDDHVLQMQNGGEKQERNTWLYQQLNITVEPIKGWRLIGDLSYRYNTQYSHWDYLTVHQTGVDGKTKGNTWNNDSQVHEGTYASDYFNVNLYTDYAKTFAKSHNMKVLFGFQAEQNNYKDIAAEKLGVIYPGKPTINTSTGMDSNNQKVAPNVAGGHNRWATAGFFGRLNYDYLEKYLLEVNLRYDGSSRFRSDSRWGFFPSASVGWNIAREKFFLPVSKVVNTFKVRASYGSLGNQNTSSLYPTYSTIGTGTGSWIIDGTLANIAWAPSLVSYNLSWEKIRTWNAGVDFGLFNNRLTGSFDYYIRKTDDMVGPSEKLPVVLGTAVPSSNNTNLKTFGWELELMWKDRLNNGLNYSARFTLADSRTKITRYSNPSGLIDGFYAGKYVGEIWGYETIGIAQSDQEMAEHIGRLINGGQSNLGQDWKAGDIMYKDLNEDGKIDAGSRTLQDHGDLKRIGNSTPRYNVGLELAADWKGFDIRMFWQGTLKRDYFQGSYYFWGANGRQGPWFSTALKGHDDYFRNDEASPLGTNLNSYYPRPLFNTDKNQQSQTKYLQDASYLRLKNLQIGYSLPHNIVQKMGMQHLRIFASGENLFTITSLIDFFDPESIEGGSWGHGNVYPLSRTFSFGLNVTF,not soluble
20,HGTMEVPINRTYSCSKEGAESPKTPACQEAKRVGGTQAMYDWNGINQNPPGDNHQSVVPDGTLCGGGQAKFKGFNLARTDWPTTNIVPDAKGNFEFIYTATMPHATKYFKFYVTRNGWNPNQPLKWSDLEPFGTYNGNPPLDDKQRYHMTMKLPTGKTGRHIIYNVWKRSDSEEAFYSCSDVNFTN,not soluble
